According to the supplement of paper PMC10724198:
± gives the standard deviation of the averaged measurements.

test system: Saccharomyces cerevisiae; assay: protein stability index of tFT-peptide fusion (C-terminal peptide) (PSI (0-1 scale)); higher = more stable (slower turnover); conditions: genetic background: wild type; temperature: 30 C
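Note: PSI is a weighted mean of sequencing reads over stability bins, variants kept only with over 10 reads, mCherry proximal and sfGFP distal, peptide attached via GGGS linker.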

Sequence	protein stability index
LSRPPSRPLPLP	0.677 ± 0.04
LSRTAFRPSLTL	0.746 ± 0.024
LSSADSVVSSVV	0.696 ± 0.0093
LSTYVLRTGSFP	0.677 ± 0.1
LSVAYSDIIVRC	0.554 ± 0.0065
LSVSRLGFLLRG	0.684 ± 0.037
LSVTGGRFSVSG	0.7174 ± 0.0063
LSYSSLGLRFSY	0.579 ± 0.02
LSYWPDARRPVL	0.643 ± 0.046
LTFPILPVSTRV	0.603 ± 0.025
LTGSGSGQGSRN	0.688 ± 0.0097
LTHSTLCYASDL	0.677 ± 0.018
LTKHQITKKAER	0.73 ± 0.078
LTLPSDSSALPA	0.748 ± 0.03
LTPCPHATPEPP	0.615 ± 0.026
LTPFQGLHLPIP	0.745 ± 0.037
LTPMDVPDPLPH	0.757 ± 0.14
LTVGPCQPAGEA	0.776 ± 0.065
LTVLCWVLCYLL	0.527 ± 0.026
LTYFSDRFVTRV	0.6579 ± 0.0051
LVAHLSTAPPPP	0.675 ± 0.0061
LVCCRRILLNTT	0.634 ± 0.089
LVCPLGIEGFSM	0.723 ± 0.034

Sequence	protein stability index
LVCSSVALLSVL	0.593 ± 0.018
LVDARVRLTFVI	0.536 ± 0.014
LVGAGREGRFVA	0.732 ± 0.083
LVGGTVYRKPSP	0.599 ± 0.025
LVGICERRHVHC	0.638 ± 0.11
LVKRINKVNNRR	0.632 ± 0.1
LVKVGCVGLIKC	0.545 ± 0.0066
LVLPCLLLFPPS	0.711 ± 0.047
LVNLESRAGAIR	0.713 ± 0.043
LVNSEKFCLSIC	0.535 ± 0.035
LVPDGFMLALKE	0.686 ± 0.038
LVQGPLSQDQPI	0.656 ± 0.029
LVRFVLNKYRGR	0.718 ± 0.012
LVRVFGQSPAPL	0.696 ± 0.031
LVSFSDTPMATA	0.786 ± 0.1
LVVSITGRFRRF	0.69 ± 0.03
LVVWFGYFGCLL	0.56 ± 0.063
LVWGGVWGAPCR	0.774 ± 0.034
LVWTGGLVGWLR	0.719 ± 0.2
LVYPSPPLQPPP	0.649 ± 0.013
LWAYRFAAGEVH	0.589 ± 0.08
LWGGGVGGVRGV	0.641 ± 0.027
LWGGPLLLPVCL	0.577 ± 0.013

Sequence	protein stability index
LWGRAVYETFQM	0.67 ± 0.063
LWGSGRNWLLWR	0.7 ± 0.017
LWGVGGADARLQ	0.775 ± 0.021
LWGWAGLRCGGF	0.685 ± 0.032
LWLCLCCSPFFV	0.658 ± 0.1
LWTASISVAEVR	0.633 ± 0.012
LWVGVVGGVRGV	0.598 ± 0.1
LWVREVVVVGTV	0.519 ± 0.013
LWVSGARTTGYF	0.756 ± 0.048
LYHPRLAPLPRT	0.627 ± 0.042
LYIPQKRGLSLH	0.62 ± 0.021
LYITLLEFKEGR	0.643 ± 0.025
LYKKRSCCLSPL	0.714 ± 0.053
LYMSRYLQLNFG	0.653 ± 0.005
LYNFLFLLPYSL	0.647 ± 0.13
LYPDTDSLTPLP	0.725 ± 0.05
LYPPVYRPVLSL	0.6626 ± 0.0029
LYQRCVCSFREK	0.639 ± 0.016
LYSGADPLPWGR	0.716 ± 0.01
LYSSMFCGTFLL	0.605 ± 0.048
LYSSPSLQSPNP	0.613 ± 0.021
LYVARVGQCVRD	0.686 ± 0.029
MAVDSVIISAVF	0.592 ± 0.096

Sequence	protein stability index
MAVVSDDRDINC	0.681 ± 0.056
MCLSYLSIFLSL	0.548 ± 0.065
MCLTPLWYPSSA	0.709 ± 0.03
MDGAVRRCLVRG	0.666 ± 0.062
MEAERRKEGENS	0.673 ± 0.072
MERAGTADGGGA	0.662 ± 0.016
MESGGVGRVVWR	0.655 ± 0.079
MGGCGARAVVVG	0.6196 ± 0.0032
MGRQSCCHKTSG	0.643 ± 0.042
MGSGRGVITTKG	0.704 ± 0.0077
MGVYAVVGTHGV	0.687 ± 0.079
MIFCSPPPLFFP	0.7 ± 0.0013
MIIPTVLCRVDL	0.661 ± 0.022
MKASRREDLCEP	0.62 ± 0.065
MLLSKRHFESDV	0.692 ± 0.018
MLSPQIERGAGR	0.681 ± 0.018
MNERDKGKIKKQ	0.6974 ± 0.0069
MNLVEIIRGVRL	0.7063 ± 0.0051
MNVASCRGREYV	0.686 ± 0.032
MPFYPSLLTSLL	0.678 ± 0.014
MPLPRQTSAPRP	0.665 ± 0.019
MPSRTYPSPPLG	0.693 ± 0.03
MSHISPFPIFPC	0.686 ± 0.0074

Sequence	protein stability index
MSKGKKKGVKRK	0.703 ± 0.013
MSLSLLSLFSSL	0.606 ± 0.027
MTYKSKNRATEE	0.648 ± 0.025
NAVCCGKWRGGS	0.714 ± 0.11
NCGGQGKEDGCK	0.621 ± 0.013
NEGRRNSRRHGG	0.683 ± 0.028
NEHTTLKITKNK	0.6818 ± 0.003
NEIENYKDIIEK	0.684 ± 0.011
NESGWHNLLMSV	0.708 ± 0.0097
NESLKHDCVKDT	0.735 ± 0.13
NETVIATLGKGA	0.657 ± 0.037
NEYFYINVRNRV	0.6743 ± 0.0017
NFAFPWTSTHAF	0.699 ± 0.017
NFLVNGRASLKV	0.583 ± 0.016
NGGRCRIARVLE	0.679 ± 0.023
NGGRSATGSVVV	0.701 ± 0.066
NGLPGNLYAGKT	0.6558 ± 0.0062
NGPAPTFSPAVR	0.685 ± 0.032
NHETRNCEGINS	0.657 ± 0.026
NHRETNRNRGKL	0.75295 ± 0.00072
NHTKAGTEKNKN	0.618 ± 0.067
NIIRGVIAGNPA	0.747 ± 0.026
NILTIYRTMKSR	0.6855 ± 0.0056

Sequence	protein stability index
NKFSAFSPETWS	0.7385 ± 0.00092
NKIDNNKKIHRV	0.699 ± 0.053
NKKEYHDRKKKS	0.619 ± 0.045
NKKKKKRNKQKN	0.762 ± 0.011
NKQKKDEKNKTE	0.73 ± 0.17
NKREYYWINLEC	0.562 ± 0.014
NKRKIKKKKKRG	0.651 ± 0.088
NLETDRRRTYGM	0.697 ± 0.036
NLETVAENMFLA	0.71 ± 0.053
NLEVNFKNIYVK	0.679 ± 0.038
NLPERSRANTLS	0.6749 ± 0.0061
NLPLPPSPFALP	0.733 ± 0.053
NLRLYDCKVAPP	0.691 ± 0.036
NLRQKQKKIKKT	0.642 ± 0.041
NLYENQDHETYR	0.651 ± 0.13
NMPGALETKMGV	0.599 ± 0.054
NNIMKPKRKIIK	0.683 ± 0.031
NNRLSEDVLCEY	0.665 ± 0.078
NNTVRTPKLSIE	0.71584 ± 0.00044
NPLRVRNNNDGL	0.745 ± 0.047
NPLSSPSLPPSS	0.625 ± 0.057
NPPAPPAPHLST	0.685 ± 0.013
NPRGAKRRNSRK	0.663 ± 0.058

Sequence	protein stability index
NPSNEKERRKKN	0.704 ± 0.02
NPYLLCKFSTLL	0.675 ± 0.028
NQDIKAENTIKL	0.668 ± 0.057
NQHNARTRWLCP	0.645 ± 0.017
NQNKENKEIDRK	0.64 ± 0.097
NQSSTSEENSGG	0.653 ± 0.024
NQTVEQPLPTSL	0.708 ± 0.042
NRAIVAYFPGMF	0.666 ± 0.042
NRDSALGPTWAP	0.718 ± 0.034
NRDSPPAGEIHA	0.648 ± 0.082
NREPQPAHTHML	0.684 ± 0.043
NRNDKNIERRKM	0.69 ± 0.069
NRTGVRIEIKGR	0.636 ± 0.081
NSTLSSNATRVK	0.727 ± 0.015
NTDSHIKIRKKI	0.7032 ± 0.0068
NTKEETKESRGR	0.713 ± 0.059
NTPSKKHDLNRL	0.707 ± 0.033
NTSPTRLSCPVF	0.616 ± 0.11
NTTITKMYTKEW	0.714 ± 0.05
NVAKTTTRHNRP	0.718 ± 0.011
NVEARLARVHWM	0.73 ± 0.12
NVEPWTRGMGSA	0.659 ± 0.02
